Entries after “also recorded” stand apart in the source; their conditions may differ.
Assays:
HAdV species A = assay: Infection assay (hexon staining), HAdV species A; assay type: cell-based, human adenovirus; settings: 15 µM HD5, A549 cells, hexon staining at ~48 h, vs. no defensin, at least three independent experiments
Procedure: (§1) To determine whether sensitivity to α-defensins is a general property of HAdVs, serotypes representative of HAdV species A–F were tested for infectivity in the presence of 15 µM HD5 or HNP1 (Figure 1). Wild type HAdVs rather than vectors were used for these studies, and infectivity was assessed by staining for hexon production. […] These studies indicate that sensitivity to α-defensins is species specific. In addition, particular HAdV serotypes are not equally sensitive to all defensins, indicating defensin sequence specificity as well.
(§2) Figure 1 Sensitivity to neutralization by alpha-defensins is AdV species specific. HAdVs were incubated with 15 µM HD5 (A) or HNP1 (B) and assessed for infectivity on A549 cells. Data are the mean of the percent infectivity compared to control cells infected with each virus in the absence of defensin for at least three independent experiments ± SD. The upper limit for quantification of this assay is 200%. […]
(§3) Prior to use in this assay, each virus stock was titrated on A549 cells. […] In parallel, wells were infected with two-fold serial dilutions of each virus to establish a standard curve for quantification with an upper limit of 200%. […] Total well fluorescence above background was quantified with ImageJ software. For each virus, samples were quantified by nonlinear regression against the standard curve using Prism software (GraphPad Software, Inc., La Jolla, CA).

HAdV-4 (species E) = assay: Infection assay (hexon staining), HAdV-4; assay type: cell-based, human adenovirus; settings: 15 µM HD5 or HNP1, A549 cells, hexon staining at ~48 h, vs. no defensin
Procedure: as §1, §2, §3

Ad5.F35 = assay: Sensitivity of Ad5.F35 to HD5; assay type: cell-based, human adenovirus; settings: data not shown; compared with HAdV-5 and HAdV-35
19cPB = assay: Infection assay, 19cPB virus chimera; assay type: cell-based, human adenovirus; settings: 5 µM and 10 µM HD5, A549 cells; at least three independent experiments; neutralized only at 10 µM
Description: The availability of sensitive (e.g., HAdV-5) and resistant (e.g., HAdV-19c) serotypes provided a means to test this HD5 neutralization model by generating virus chimeras. Initially, virus chimeras were constructed by replacing the sequences for fiber, penton base, and hexon in the HAdV-5 genome with the corresponding sequences from HAdV-19c. Consistent with previous studies, [38], the virus chimera containing the HAdV-19c hexon is not viable; however, constructs containing the HAdV-19c fiber (19cF) or penton base (19cPB) are capable of replicating. […] In contrast, the 19cPB virus has an intermediate phenotype.
Figure 6 Neutralization determinants are located in fiber and penton base. A) Schematic of chimeric viruses. […] B) Each of the chimeric viruses was incubated with 5 µM (grey) or 10 µM (black) HD5 and assessed for infectivity on A549 cells. […] The upper limit for quantification of this assay is 200%.
as §3

PB/GYAR = assay: Infection assay, PB/GYAR virus chimera; assay type: cell-based, human adenovirus
Procedure: (§4) Figure 6 Neutralization determinants are located in fiber and penton base. A) Schematic of chimeric viruses. Capsid proteins are depicted in the order in which they are encoded in the virus genome for HAdV-5 (white) and HAdV-19c (grey). The variable residues in fiber (GYAR and DTET) are indicated for each construct. B) Each of the chimeric viruses was incubated with 5 µM (grey) or 10 µM (black) HD5 and assessed for infectivity on A549 cells. Data are the mean of the percent infectivity compared to control cells infected with each virus in the absence of defensin for at least three independent experiments ± SD. The upper limit for quantification of this assay is 200%.
(§5) We then combined the GYAR substitution with the PB substitution in a single construct (PB/GYAR).
as §3, with “cells. A virus concentration was chosen to produce 50–70% maximal signal in the absence of defensin as described below.” for “cells.”

HAdV-19c = assay: Infection assay, HAdV-19c; assay type: cell-based, human adenovirus
Procedure: as §4, §5
as §3, with “cells. A virus concentration was chosen to produce 50–70% maximal signal in the absence of defensin as described below.” for “cells.”

19cF = assay: Virus-defensin binding assay, 19cF; design: species or system human adenovirus; settings: studies equivalent to Figure 2B, data not shown
Procedure: as §5
To measure HD5 binding to HAdV-5 and -51, HD5 was serially diluted in PBS and mixed with 5 µg purified virus. After 1 h incubation on ice, one half of each sample was separated by ultracentrifugation [209,000×g (avg.) for 2 hrs at 4°C] on a discontinuous gradient consisting of 300 µl of 30% nycodenz and 200 µl of 80% nycodenz in 50 mM NaCl, 20 mM HEPES pH 7.4 using an SW55ti rotor with adaptors (Beckman Coulter, Inc.). The visible virus band was collected. The other half of each sample was used to make a standard curve for quantification. All samples were boiled in reducing loading buffer and separated using a 16% PAGEgel (Expedeon, Inc., San Diego, CA) or 10–20% Tris-Tricine gel (Bio-Rad, Hercules, CA). The gels were stained with Deep Purple (GE Healthcare) and imaged on a Typhoon Trio. Virus bands were quantified using ImageQuant NT software (GE Healthcare). The amount of HD5 in each sample was normalized to protein V and hexon. The amount of HD5 in the centrifuged samples was then quantified against the standard curve using Prism software. Affinity and stoichiometry were estimated from the average data of at least three independent experiments using Prism software.

[1] = system: HAdV-5/HAdV-19c chimeric viruses; assay: FACS-based infection assay of virus chimeras at 100-fold lower moi; assay type: cell-based, human adenovirus; settings: data not shown
Description: as §5

HAdV-7 = assay: Virus-defensin binding, HAdV-7; design: species or system human adenovirus
HAdV-5 = settings: ref [13], cited from earlier work
Procedure: In order to determine the receptor-dependence of this effect, we pre-incubated cells with recombinant fiber knob from HAdV-5 (5FK) to block receptor (CAR) interactions and measured cell binding of fluorescently labeled HAdV-5 that was pre-incubated with or without HD5 or HD5-Abu (Figure 3C). Cells incubated with fiber knob from HAdV-16 (16FK), which binds CD46, served as a control. […] Therefore, we considered which of the multiple binding sites visualized by cryoEM might lead to enhanced virion stability. We reasoned that we might find a negatively charged region o ...

B1: HD5: human alpha-defensin; synthetic, obtained from Peptides International; three disulfide bonds (PDB 1ZMP) (peptide, UniProt Q01523 20-94, looked up)
Defensin alpha 5: ESLQERADEATTQKQSGEDNQDLAISFAGNGLSALRTSGSQARATCYCRTGRCATRESLSGVCEISGRLYRLCCR
modifications: Defensin-5
- sensitivity to neutralization (infectivity) (HAdV species A): sensitive
- sensitivity to neutralization (infectivity) (HAdV-4 (species E)): moderately sensitive
- sensitivity of Ad5.F35 to HD5 (Ad5.F35): comparable to that of HAdV-5 and HAdV-35
- sensitivity to HD5 neutralization (19cPB): partially neutralized by HD5 but only at the higher concentration tested (10 µM)
- sensitivity to HD5 neutralization (PB/GYAR; 5 µM and 10 µM HD5, A549 cells, at least three independent experiments): completely resistant to neutralization
- defensin-resistance at higher HD5 concentration (PB/GYAR; 20 µM HD5, data not shown): confirmed the defensin-resistance
- sensitivity to HD5 neutralization (HAdV-19c; 5 µM and 10 µM HD5, A549 cells): completely resistant to neutralization
- defensin-resistance at higher HD5 concentration (HAdV-19c; 20 µM HD5, data not shown): confirmed the defensin-resistance
- amount of HD5 bound compared to HAdV-5 (19cF): did not detect a reduction in the amount of HD5 bound; also recorded: did not result in a noticeable reduction in overall HD5 binding
- sensitivity phenotype of chimeras in FACS-based assay [1]: Equivalent results
- level of HD5 binding (in words) (HAdV-7): specific binding
- effect on HAdV-5 entry into host cells (HAdV-5; [36]): does not prevent HAdV-5 from entering host cells
- binding of HAdV-5 to cells (HAdV-5): enhances binding of HAdV-5 to cells
